Measured values: US20200085917A1

What was measured:
Test in all cases: GST pull-down, LC-MS/MS
[1] = target: Arf2_IPI:IPI00135730.1 (mouse) (UniProt Q8BSL7)
[2] = target: Dnaja3_IPI:IPI00120414.1 (mouse) (UniProt Q99M87)
[3] = target: Mrps33_IPI:IPI00135214.1 (mouse) (UniProt Q9D2R8)
[4] = target: Rdh14_IPI:IPI00112377.1 (mouse) (UniProt Q9ERI6)
[5] = target: Dsp_IPI:IPI00553419.3 (mouse) (UniProt E9Q557)
[6] = target: Iscu_IPI:IPI00110578.1 (mouse) (UniProt Q9D7P6)
[7] = target: Snap25_IPI:IPI00125635.1 (mouse) (UniProt P60879)
[8] = target: Prdx3_IPI:IPI00116192.1 (mouse) (UniProt P20108)
[9] = target: Gnb3_IPI:IPI00116938.1 (mouse) (UniProt Q61011)
[10] = target: Rab5b_IPI:IPI00116563.2 (mouse) (UniProt P61021)
Chain of Rab5b_IPI:IPI00116563.2 (mouse) (P61021 2-215 limits assumed): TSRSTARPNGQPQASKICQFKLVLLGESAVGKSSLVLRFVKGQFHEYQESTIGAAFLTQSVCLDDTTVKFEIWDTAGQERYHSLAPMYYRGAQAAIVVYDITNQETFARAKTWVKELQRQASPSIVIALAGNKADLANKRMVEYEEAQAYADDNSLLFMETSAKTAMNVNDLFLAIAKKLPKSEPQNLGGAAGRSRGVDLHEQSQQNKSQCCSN

[11] = target: Mrpl14_IPI:IPI00133778.1 (mouse) (UniProt Q9D1I6)
[12] = target: Nubpl_IPI:IPI00317709.1 (mouse) (UniProt Q9CWD8)
Chain of Nubpl_IPI:IPI00317709.1 (mouse) (Q9CWD8 39-319 limits assumed): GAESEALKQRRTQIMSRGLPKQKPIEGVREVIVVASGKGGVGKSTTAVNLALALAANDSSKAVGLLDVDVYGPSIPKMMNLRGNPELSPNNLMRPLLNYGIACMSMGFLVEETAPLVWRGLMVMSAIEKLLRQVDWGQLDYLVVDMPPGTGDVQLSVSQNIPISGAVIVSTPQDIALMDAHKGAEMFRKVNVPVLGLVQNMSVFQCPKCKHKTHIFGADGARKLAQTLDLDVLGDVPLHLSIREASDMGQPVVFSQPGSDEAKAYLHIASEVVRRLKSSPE

[13] = target: Rab2a_IPI:IPI00137227.1 (mouse) (UniProt P53994)
[14] = target: Sccpdh_IPI:IPI00153266.1 (mouse) (UniProt Q8R127)
Chain of Sccpdh_IPI:IPI00153266.1 (mouse) (Q8R127 2-429 limits assumed): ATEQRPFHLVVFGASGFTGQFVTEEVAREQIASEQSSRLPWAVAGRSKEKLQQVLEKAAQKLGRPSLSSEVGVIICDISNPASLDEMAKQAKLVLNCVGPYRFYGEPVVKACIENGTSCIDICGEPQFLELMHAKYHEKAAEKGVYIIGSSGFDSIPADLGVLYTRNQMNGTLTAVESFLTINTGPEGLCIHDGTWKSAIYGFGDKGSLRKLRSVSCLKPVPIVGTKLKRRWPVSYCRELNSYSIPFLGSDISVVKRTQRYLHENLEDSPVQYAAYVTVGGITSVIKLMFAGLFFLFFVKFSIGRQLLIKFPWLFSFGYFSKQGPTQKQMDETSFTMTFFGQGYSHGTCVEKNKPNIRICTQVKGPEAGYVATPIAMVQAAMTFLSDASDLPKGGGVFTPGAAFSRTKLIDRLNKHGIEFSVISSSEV

[15] = target: Agk_IPI:IPI00113606.2 (mouse) (UniProt Q9ESW4)
[16] = target: Ywhaq_IPI:IPI00408378.4 (mouse) (UniProt P68254)
Chain of Ywhaq_IPI:IPI00408378.4 (mouse) (P68254 whole entry): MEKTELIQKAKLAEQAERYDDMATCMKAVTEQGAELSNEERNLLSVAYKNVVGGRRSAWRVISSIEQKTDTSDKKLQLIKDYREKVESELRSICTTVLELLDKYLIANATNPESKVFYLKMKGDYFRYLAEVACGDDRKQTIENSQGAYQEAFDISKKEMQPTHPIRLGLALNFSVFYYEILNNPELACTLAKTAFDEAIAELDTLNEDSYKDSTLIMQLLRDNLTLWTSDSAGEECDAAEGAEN

[17] = target: Lyrm7_IPI:IPI00117832.1 (mouse) (UniProt Q9DA03)
[18] = target: Gm6180_IPI:IPI00409405.2 (mouse)
[19] = target: Slc6a11_IPI:IPI00136867.1 (mouse) (UniProt P31650)
[20] = target: Hsdl1_IPI:IPI00225301.1 (mouse) (UniProt Q8BTX9)
[21] = target: Atp1a1_IPI:IPI00311682.5 (mouse) (UniProt Q8VDN2)
[22] = target: Ppt1_IPI:IPI00331318.2 (mouse) (UniProt O88531)
[23] = target: Isca2_IPI:IPI00120671.2 (mouse) (UniProt Q9DCB8)
Chain of Isca2_IPI:IPI00120671.2 (mouse) (Q9DCB8 9-154 limits assumed): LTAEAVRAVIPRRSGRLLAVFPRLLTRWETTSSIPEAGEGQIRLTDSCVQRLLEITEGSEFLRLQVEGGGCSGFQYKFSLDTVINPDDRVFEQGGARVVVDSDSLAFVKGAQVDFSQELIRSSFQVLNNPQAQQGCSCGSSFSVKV

[24] = target: Nup210l_IPI:IPI00356451.5 (mouse) (UniProt Q9D2F7)
Chain of Nup210l_IPI:IPI00356451.5 (mouse) (Q9D2F7 33-1881 limits assumed): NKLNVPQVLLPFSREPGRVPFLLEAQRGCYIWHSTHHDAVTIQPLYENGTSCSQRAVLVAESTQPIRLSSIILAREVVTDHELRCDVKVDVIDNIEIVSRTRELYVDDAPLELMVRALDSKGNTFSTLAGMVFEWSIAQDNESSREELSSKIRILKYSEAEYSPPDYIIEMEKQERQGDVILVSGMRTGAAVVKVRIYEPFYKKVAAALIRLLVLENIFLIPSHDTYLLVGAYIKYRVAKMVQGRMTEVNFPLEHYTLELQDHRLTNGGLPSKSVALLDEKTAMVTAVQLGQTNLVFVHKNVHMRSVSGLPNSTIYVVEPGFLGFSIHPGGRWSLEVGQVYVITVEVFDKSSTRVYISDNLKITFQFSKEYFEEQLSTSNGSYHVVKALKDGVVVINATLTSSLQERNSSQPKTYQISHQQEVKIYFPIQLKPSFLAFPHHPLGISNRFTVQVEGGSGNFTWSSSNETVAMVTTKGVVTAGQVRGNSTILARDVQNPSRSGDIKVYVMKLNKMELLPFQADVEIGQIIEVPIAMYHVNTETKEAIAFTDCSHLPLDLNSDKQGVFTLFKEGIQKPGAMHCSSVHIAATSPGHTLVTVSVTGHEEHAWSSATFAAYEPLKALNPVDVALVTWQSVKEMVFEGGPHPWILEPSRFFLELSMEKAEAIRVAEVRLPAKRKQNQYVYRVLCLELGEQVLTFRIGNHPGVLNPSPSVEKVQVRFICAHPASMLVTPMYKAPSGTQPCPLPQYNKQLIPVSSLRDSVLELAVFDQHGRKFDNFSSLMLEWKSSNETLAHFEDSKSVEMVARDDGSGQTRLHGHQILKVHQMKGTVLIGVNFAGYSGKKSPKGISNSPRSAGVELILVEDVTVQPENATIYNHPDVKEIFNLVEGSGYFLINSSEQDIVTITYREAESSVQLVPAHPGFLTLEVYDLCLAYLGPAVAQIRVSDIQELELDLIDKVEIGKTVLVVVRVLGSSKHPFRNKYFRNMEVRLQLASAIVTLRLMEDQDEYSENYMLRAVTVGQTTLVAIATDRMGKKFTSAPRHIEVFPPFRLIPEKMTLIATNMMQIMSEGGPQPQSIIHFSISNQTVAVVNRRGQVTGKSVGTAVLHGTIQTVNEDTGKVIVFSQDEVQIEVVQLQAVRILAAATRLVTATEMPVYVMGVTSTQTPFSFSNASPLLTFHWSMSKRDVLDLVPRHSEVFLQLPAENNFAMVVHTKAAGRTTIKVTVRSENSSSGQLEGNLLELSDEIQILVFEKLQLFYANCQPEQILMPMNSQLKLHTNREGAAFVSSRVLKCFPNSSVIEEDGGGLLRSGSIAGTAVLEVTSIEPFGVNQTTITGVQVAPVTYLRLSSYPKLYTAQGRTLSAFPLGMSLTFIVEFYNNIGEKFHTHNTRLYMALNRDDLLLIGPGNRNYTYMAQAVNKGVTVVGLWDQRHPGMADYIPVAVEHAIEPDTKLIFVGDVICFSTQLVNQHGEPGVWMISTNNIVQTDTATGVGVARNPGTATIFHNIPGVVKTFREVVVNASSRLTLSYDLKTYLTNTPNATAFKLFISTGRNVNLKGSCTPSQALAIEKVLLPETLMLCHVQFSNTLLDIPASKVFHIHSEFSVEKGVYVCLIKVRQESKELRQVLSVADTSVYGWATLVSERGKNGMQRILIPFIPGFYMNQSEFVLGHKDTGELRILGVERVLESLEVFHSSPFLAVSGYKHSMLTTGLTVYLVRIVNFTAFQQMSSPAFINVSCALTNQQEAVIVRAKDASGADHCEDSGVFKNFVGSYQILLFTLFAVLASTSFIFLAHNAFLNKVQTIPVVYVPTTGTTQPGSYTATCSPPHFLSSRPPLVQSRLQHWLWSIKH

[25] = target: Pnkd_IPI:IPI00187405.4 (mouse) (UniProt Q69ZP3)
[26] = target: LOC100044454_IPI:IPI00135284.1 (mouse)
[27] = target: Rab15_IPI:IPI00170032.1 (mouse) (UniProt Q8K386)
Chain of Rab15_IPI:IPI00170032.1 (mouse) (Q8K386 whole entry): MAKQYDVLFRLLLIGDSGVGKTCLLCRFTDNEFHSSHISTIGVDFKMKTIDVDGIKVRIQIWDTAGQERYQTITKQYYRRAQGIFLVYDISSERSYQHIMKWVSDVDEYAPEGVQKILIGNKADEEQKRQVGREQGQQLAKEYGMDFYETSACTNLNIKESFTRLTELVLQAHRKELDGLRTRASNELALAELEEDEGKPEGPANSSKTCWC

[28] = target: Hsd17b10_IPI:IPI00320847.1 (mouse) (UniProt O08756)
Chain of Hsd17b10_IPI:IPI00320847.1 (mouse) (O08756 2-261 limits assumed): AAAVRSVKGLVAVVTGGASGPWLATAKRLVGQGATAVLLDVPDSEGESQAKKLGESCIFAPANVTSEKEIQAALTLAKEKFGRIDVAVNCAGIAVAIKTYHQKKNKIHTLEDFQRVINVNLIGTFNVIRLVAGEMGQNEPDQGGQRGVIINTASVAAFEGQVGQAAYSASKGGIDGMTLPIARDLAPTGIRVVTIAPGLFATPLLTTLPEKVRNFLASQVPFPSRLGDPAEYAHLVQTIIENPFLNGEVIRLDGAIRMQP

[29] = target: Ndufa11_IPI:IPI00318645.6 (mouse) (UniProt Q9D8B4)
[30] = target: Rhot1_IPI:IPI00123186.4 (mouse) (UniProt Q8BG51)
[31] = target: Ywhaz_IPI:IPI00116498.1 (mouse) (UniProt P63101)
[32] = target: Uqcrb_IPI:IPI00132347.1 (mouse) (UniProt Q9D855)
Chain of Uqcrb_IPI:IPI00132347.1 (mouse) (Q9D855 2-111 limits assumed): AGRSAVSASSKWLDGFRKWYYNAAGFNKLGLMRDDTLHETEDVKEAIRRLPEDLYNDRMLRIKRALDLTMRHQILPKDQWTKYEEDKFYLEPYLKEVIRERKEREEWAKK

[33] = target: Suclg2_IPI:IPI00459487.3 (mouse) (UniProt Q9Z2I8)

Chain of Rdh14_IPI:IPI00112377.1 (mouse) (Q9ERI6 whole entry): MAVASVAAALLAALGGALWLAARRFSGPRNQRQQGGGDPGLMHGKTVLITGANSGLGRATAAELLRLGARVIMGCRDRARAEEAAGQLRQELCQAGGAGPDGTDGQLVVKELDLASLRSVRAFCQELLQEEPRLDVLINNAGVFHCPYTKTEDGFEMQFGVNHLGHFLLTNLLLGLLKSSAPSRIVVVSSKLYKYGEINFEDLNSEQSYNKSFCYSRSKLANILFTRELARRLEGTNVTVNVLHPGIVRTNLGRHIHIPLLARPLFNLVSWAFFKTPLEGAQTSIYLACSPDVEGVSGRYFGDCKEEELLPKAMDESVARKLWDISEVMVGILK
Chain of Arf2_IPI:IPI00135730.1 (mouse) (Q8BSL7 2-181 limits assumed): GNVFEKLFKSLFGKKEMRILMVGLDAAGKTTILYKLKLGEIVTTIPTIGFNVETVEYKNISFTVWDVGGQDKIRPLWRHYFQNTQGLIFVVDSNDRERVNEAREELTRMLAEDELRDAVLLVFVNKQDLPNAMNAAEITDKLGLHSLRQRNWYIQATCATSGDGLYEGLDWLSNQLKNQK
Chain of Dnaja3_IPI:IPI00120414.1 (mouse) (Q99M87 whole entry): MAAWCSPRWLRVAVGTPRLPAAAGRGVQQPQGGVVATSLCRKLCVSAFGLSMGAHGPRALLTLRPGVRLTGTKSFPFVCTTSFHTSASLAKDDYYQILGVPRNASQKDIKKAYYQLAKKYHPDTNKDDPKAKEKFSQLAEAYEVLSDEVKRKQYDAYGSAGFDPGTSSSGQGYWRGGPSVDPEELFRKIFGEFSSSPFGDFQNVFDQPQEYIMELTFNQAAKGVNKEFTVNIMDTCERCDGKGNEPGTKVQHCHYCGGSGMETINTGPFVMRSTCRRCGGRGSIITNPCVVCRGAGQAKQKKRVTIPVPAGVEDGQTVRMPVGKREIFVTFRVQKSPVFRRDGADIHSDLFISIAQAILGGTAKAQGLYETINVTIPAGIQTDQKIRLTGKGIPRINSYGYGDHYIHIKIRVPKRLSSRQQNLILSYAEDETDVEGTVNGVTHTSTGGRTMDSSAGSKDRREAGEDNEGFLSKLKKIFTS
Chain of Iscu_IPI:IPI00110578.1 (mouse) (Q9D7P6 36-168 limits assumed): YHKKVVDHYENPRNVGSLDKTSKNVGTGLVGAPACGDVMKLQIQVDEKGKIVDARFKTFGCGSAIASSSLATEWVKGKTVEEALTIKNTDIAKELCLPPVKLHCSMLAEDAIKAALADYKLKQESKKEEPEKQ

GST-Httex1-97Q (from UniProt P08515 1-218; P42858 1-88)
No. of total peptides [1]: 3 peptides
No. of unique peptides [1]: 3 peptides
No. of total peptides [2]: 1 peptides
No. of unique peptides [2]: 1 peptides
No. of total peptides [3]: 1 peptides
No. of unique peptides [3]: 1 peptides
No. of total peptides [4]: 1 peptides
No. of unique peptides [4]: 1 peptides
No. of total peptides [5]: 4 peptides
No. of unique peptides [5]: 4 peptides
No. of total peptides [6]: 2 peptides
No. of unique peptides [6]: 2 peptides
No. of total peptides [7]: 1 peptides
No. of unique peptides [7]: 1 peptides
No. of total peptides [8]: 3 peptides
No. of unique peptides [8]: 3 peptides
No. of total peptides [9]: 1 peptides
No. of unique peptides [9]: 1 peptides
No. of total peptides [10]: 1 peptides
No. of unique peptides [10]: 1 peptides
No. of total peptides [11]: 4 peptides
No. of unique peptides [11]: 3 peptides
No. of total peptides [12]: 1 peptides
No. of unique peptides [12]: 1 peptides
No. of total peptides [13]: 1 peptides
No. of unique peptides [13]: 1 peptides
No. of total peptides [14]: 1 peptides
No. of unique peptides [14]: 1 peptides
No. of total peptides [15]: 1 peptides
No. of unique peptides [15]: 1 peptides
No. of total peptides [16]: 1 peptides
No. of unique peptides [16]: 1 peptides
No. of total peptides [17]: 1 peptides
No. of unique peptides [17]: 1 peptides
No. of total peptides [18]: 1 peptides
No. of unique peptides [18]: 1 peptides
No. of total peptides [19]: 1 peptides
No. of unique peptides [19]: 1 peptides
No. of total peptides [20]: 2 peptides
No. of unique peptides [20]: 2 peptides
No. of total peptides [21]: 1 peptides
No. of unique peptides [21]: 1 peptides
No. of total peptides [22]: 1 peptides
No. of unique peptides [22]: 1 peptides
No. of total peptides [23]: 3 peptides
No. of unique peptides [23]: 3 peptides
No. of total peptides [24]: 1 peptides
No. of unique peptides [24]: 1 peptides
No. of total peptides [25]: 1 peptides
No. of unique peptides [25]: 1 peptides
No. of total peptides [26]: 3 peptides
No. of unique peptides [26]: 3 peptides
No. of total peptides [27]: 1 peptides
No. of unique peptides [27]: 1 peptides
No. of total peptides [28]: 1 peptides
No. of unique peptides [28]: 1 peptides
No. of total peptides [29]: 1 peptides
No. of unique peptides [29]: 1 peptides
No. of total peptides [30]: 1 peptides
No. of unique peptides [30]: 1 peptides
No. of total peptides [31]: 1 peptides
No. of unique peptides [31]: 1 peptides
No. of total peptides [32]: 1 peptides
No. of unique peptides [32]: 1 peptides
No. of total peptides [33]: 2 peptides
No. of unique peptides [33]: 2 peptides
